# Test results reported in US20150098945A1 (Daiichi Sankyo, published 2015).
# B1: anti-ROBO4 mouse monoclonal antibody MAb1 (antibody, mouse IgG1, V domains shown)
# VH: EVQLVESGGGLVKPGGSLKLSCAASGFTFSTYAMSWVRQTPEKRLEWVATISNGGTYTYYPDSVKGRFTISRDNAENTLYLQMSSLRSEDTAMYFCARLIYYDYLDYWGHGTTLTVSS
# VL: DAVMTQTPLSLPVSLGDQASISCRSSQSLENSNGNTYLNWYFQKPGQSPQLLIYRVSNRFSGVLDRFSGSGSGTDFTLKISRVEAEDFGVYFCLQVTHVPWTFGGGTKLEIKR
# notes: Mouse IgG1 (gamma1), kappa light chain, purified from hybridoma supernatant; also called parent antibody MAb1
# B2: humanized MAb1 antibody H-2143 (antibody, human IgG2, kappa, V domains shown)
# VH: EVQLVESGGGLVQPGGSLRLSCAASGFTFSTYAMSWVRQAPGKRLEWVATISQGGTYTYYPDSVKGRFTISRDNAKNTLYLQMNSLRAEDTAVYYCARLIYYDYLDYWGQGTLVTVSS
# VL: DIVMTQSPLSLPVTLGEPASISCRSSQSLENENKNLYLNWYLQKPGQSPQLLIYRVSNRFSGVPDRFSGSGSGTDFTLKISRVEAEDVGVYYCLQVTHVPWTFGPGTKVDIKR
# notes: Human IgG2 / kappa constant regions; also called hMAb1-H4-type heavy chain + hMAb1-L2-type light chain
# Legend:
# [1] = target: T1, full-length human ROBO4 (pCI-hROBO4-transfected HEK293/HEK293T cells) (human, UniProt Q8WZ75 28-1007); experiment: flow cytometry, HEK293 cells transfected with pCI-hROBO4, antibody at 10 µg/mL, anti-mouse IgG FITC; control histogram IgG (Mouse IgG2a)
# T1 sequence: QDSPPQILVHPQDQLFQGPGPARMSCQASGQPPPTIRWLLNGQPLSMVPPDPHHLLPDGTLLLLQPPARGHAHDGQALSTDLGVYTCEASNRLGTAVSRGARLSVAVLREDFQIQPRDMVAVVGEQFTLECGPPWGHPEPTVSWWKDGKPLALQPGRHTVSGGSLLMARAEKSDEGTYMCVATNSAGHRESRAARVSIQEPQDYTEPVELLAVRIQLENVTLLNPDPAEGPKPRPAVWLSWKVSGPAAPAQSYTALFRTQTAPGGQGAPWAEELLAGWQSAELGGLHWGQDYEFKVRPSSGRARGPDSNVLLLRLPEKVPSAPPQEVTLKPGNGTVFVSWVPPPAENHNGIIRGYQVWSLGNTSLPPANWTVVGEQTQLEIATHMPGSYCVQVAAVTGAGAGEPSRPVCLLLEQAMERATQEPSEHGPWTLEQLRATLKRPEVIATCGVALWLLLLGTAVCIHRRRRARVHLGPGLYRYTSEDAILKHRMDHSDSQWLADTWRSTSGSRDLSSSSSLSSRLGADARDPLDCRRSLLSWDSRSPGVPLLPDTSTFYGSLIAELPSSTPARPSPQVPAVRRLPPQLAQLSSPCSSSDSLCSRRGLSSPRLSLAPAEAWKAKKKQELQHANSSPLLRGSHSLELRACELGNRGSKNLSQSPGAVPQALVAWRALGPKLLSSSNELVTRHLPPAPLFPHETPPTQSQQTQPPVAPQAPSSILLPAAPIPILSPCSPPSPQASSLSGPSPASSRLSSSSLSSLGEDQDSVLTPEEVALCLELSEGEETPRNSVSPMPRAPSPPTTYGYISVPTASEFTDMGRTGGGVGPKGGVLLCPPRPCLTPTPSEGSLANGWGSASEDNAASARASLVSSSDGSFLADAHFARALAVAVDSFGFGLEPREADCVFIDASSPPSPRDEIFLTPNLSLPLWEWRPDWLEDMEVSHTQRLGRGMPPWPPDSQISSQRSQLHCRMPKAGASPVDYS
# Protocol: HEK293 cells were inoculated at a concentration of 1.5×10⁶ cells/dish to a 60-mm dish (manufactured by Corning Inc.) and cultured overnight in a DMEM medium containing 10% FBS at 37° C. under 5% CO₂ conditions. On the next day, the HEK293 cells were transfected with pCI-hROBO4, pCI-mROBO4, pCI-raROBO4, pCI-FLAG-cynoROBO4-1, pCI-FLAG-cynoROBO4-2, pCI-hROBO1, pCI-hROBO2, or pCI-hROBO3 using FuGENE6 Transfection Reagent and further cultured overnight at 37° C. under 5% CO₂ conditions. On the next day, the expression vector-transfected cells were treated with TrypLE Express (manufactured by Life Technologies Corp.), washed with PBS containing 5% FBS, and then suspended in PBS containing 5% FBS. The obtained cell suspension was used in flow cytometry analysis.
# Each cell suspension prepared in 4)-3-1 was centrifuged, and the supernatant was removed. Then, MAb1 or a negative control Mouse IgG2a was added at a concentration of 10 μg/mL to 2×10⁵ expression vector-transfected cells, and the resulting suspension was left standing at 4° C. for 1 hour. […] Data was analyzed using Flowjo. The histogram of FITC fluorescence intensity was prepared. The antibody was determined to bind in a cross-species manner when the histogram of MAb1 was shifted to a stronger fluorescence intensity region compared with the histogram of the negative control Mouse IgG2a.
# [2] = target: T2, mouse ROBO4 (pCI-mROBO4-transfected HEK293 cells) (mouse, UniProt Q8C310 28-1012); experiment: flow cytometry (FC500), HEK293 cells transfected with pCI-mROBO4, FITC goat anti-human IgG Fc; control histogram IgG (human IgG)
# T2 sequence: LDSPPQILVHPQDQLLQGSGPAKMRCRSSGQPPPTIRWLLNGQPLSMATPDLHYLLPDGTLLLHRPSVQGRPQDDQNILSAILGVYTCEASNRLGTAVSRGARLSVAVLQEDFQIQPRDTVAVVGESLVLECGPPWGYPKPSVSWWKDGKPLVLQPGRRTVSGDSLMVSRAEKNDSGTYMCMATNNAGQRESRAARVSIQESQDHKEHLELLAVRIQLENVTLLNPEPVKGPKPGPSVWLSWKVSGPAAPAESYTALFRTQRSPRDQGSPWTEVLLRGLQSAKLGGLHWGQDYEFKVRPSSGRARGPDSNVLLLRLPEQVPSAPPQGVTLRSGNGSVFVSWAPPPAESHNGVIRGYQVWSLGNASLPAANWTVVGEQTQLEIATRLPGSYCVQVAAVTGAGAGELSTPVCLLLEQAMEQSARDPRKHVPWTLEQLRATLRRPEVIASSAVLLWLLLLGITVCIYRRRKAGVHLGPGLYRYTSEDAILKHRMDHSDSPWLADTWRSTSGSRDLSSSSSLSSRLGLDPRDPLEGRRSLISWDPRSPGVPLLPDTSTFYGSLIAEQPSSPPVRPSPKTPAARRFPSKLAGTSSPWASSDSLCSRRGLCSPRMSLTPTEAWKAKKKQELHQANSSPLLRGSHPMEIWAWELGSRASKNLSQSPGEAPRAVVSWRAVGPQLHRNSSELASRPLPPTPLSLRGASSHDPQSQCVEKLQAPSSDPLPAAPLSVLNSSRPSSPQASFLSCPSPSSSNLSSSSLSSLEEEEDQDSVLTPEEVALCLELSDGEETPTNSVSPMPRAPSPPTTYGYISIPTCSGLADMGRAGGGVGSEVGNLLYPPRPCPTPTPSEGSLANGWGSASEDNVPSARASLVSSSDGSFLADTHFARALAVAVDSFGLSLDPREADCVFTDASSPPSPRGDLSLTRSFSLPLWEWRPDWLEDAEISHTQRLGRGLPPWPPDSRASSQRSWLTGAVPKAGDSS
Binder,binding result [1],binding result [2]
B1,binds,–
B2,–,no binding (tested: 10 µg/mL)
